This is an account of results in publication PMC8746315, “Biophysical Characterization of Novel DNA Aptamers against K103N/Y181C Double Mutant HIV-1 Reverse Transcriptase”.

This data set addresses HIV-1 reverse transcriptase, wild type (HIV-1, UniProt P04585;P04585 588-1147;588-1027). Kind of data set: SPR; SPR: 10 mM HEPES pH 7.5, 150 mM NaCl, 80 mM KCl, 5 mM MgCl2, 25 C, RT on NTA chip; NMR: 10 mM Tris-d11 pD 7.6, 200 mM KCl, 1.5 mM sodium azide, 4 mM MgCl2; inhibition assay 25 C, 30 min. The conditions noted are these: protein: recombinant; (NTA chip capture); copies: 1;1. In general terms: Surface plasmon resonance follows binding to a sensor surface in real time, without labels.
For the molecule CTATAGGGGGTTGCATCTTAGACATTAATGTTCATTTACA (ssDNA) [KY23], the dissociation constant Kd – broadly, the constant that tells how readily two partners part at equilibrium – came to 55.2 nM. Consider AGTAAGACTATAATTCAGTCCTCATTGATTTCCCACATCG (ssDNA) [KY1], for which the dissociation constant Kd came to 2170 nM. Consider CACACTAAGGGAGTAGGAATCCGCGGTCACAATGTTCCTG (ssDNA) [KY22], for which the dissociation constant (Kd) is 1040 nM.

As to GTGCAAGCGTACGAAGGGATAATTCACTCTAGGAGCTTCT (ssDNA) [KY44], the Kd worked out at 2150 nM.

For CCAGAAAGCTCGGGTTCGTTCCACAAATAACACTTGCCC (ssDNA) [KY28], the Kd came to 1020 nM.
